Consider one substance from patent US20230348892A1.

This test deals with intC-ZF1-NLS-HA. The experiment in a line: cell-based or functional assay.

Substance 3xFLAG-NLS-VP64-intN returned a rec: Reconstitution of split TFs (fitted based on split inteins), model rate constant fitted to reporter data of 0.34 U^-1 h^-1.
